B1: NCI-CoV-S2G8 (VNAR)
VNAR: ARVDQTPQTITKETGESLTINCVLRDSNCPLSNTYWYRKKSGSTNEESISKGGRYVETVNSGSKSFSLRINDLTVEDSGTYRCKVRTHWSICWEMGLEPNYDVYGGGTVVTVN
B2: NCI-CoV-CG2G2 (VHH)
VHH: AVQLVESGGGSVPPGGSLTLSCTVSDNIFRTYAVGWFRQAPEKRCQWIATLNADESTEYNVAVTGRFTISRDNSGRSVYLQMDNLNSEDTAIYYCASLARKWSCHDSWGRGTQVTVSS
B3: NCI-CoV-S2A9 (VNAR)
VNAR: ARVDQTPRSVTKETGESLTINCVLRDASYALGRTCWYRKKSGSTNEESISKGGRYVETVNSGSKSFSLRINDLTVEDGGTYRCGVSTPWSCDYGPLCFYAACGDGTVVTVN
B4: NCI-CoV-CL3H4 (VHH)
VHH: DVQLVESGGGAVKPGGSLTLTCTVQEGSRNCVGWFRQGSGKDRQAVAMINGNGGTTNYDDRVKGRFQISRDGSLVHLRMNDVKLGDTDIYYCRQGQTYDCWGGTWTDSGWGQGTQVTVSS
B5: NCI-CoV-CGF10 (VHH)
VHH: AVQLVESGGGLVQPGGSLRLSCAASGFTFSSYGMHWVRQAPGKGLERVAGINWDGSNSYYTETVKGRFTISRDNAKNTAYLQMNSLKPEDTAMYYCRTLILDSDCDPGSTYRYAWGQGTQVTVSS
B6: NCI-CoV-CLA2 (VHH)
VHH: QVQLVESGGGSVQPGGSLRLSCAVSGYTSSSYCFGWFRQAPGKDREGIIAMEPGNTYTAGAVKGRFTISRDNAKNMVYLQMNSLKPDDTAMYYCAASPYPGTWLNPDLFDTWGQGTQVTVSS
B7: NCI-CoV-S4A9 (VNAR)
VNAR: ARVDQTPRSVTKETGESLTINCVLRDASYALGSTCWYRKKSGSTNEESISKGGRYVETVNSGSKSFSLRINDLTVEDGGTYRCGVQSRWGAVPKLCSNYAACGDGTAVTVN
B8: NCI-CoV-S3A10 (VNAR)
VNAR: ARVDQTPRSVTKETGESLTINCVLRDASYALGSTCWYRKKSGSTNEESISKGGRYVETVNSGSKSFSLRINDLTVEDGGTYRCGRIQNTKAVLLPCVYAACGDGTVVTVN
B9: NCI-CoV-CGH3 (VHH)
VHH: AVQLVESGGGLVQPGGSLRLSCAASGFTFSSYAMGWVRQAPGKGLEWISAINSGGDIRYYADSVKGRFTISRDNAKNTLYLQMNSLKPEDTAVYYCATDDEILSYGLGTSFDYWGQGTQVTVSS

Columns and labels:
[1] = target: T1, SARS-CoV-2 spike trimer (40589-V08H4) (SARS-CoV-2, UniProt P0DTC2 14-1213); assay: ELISA, A450, nanobody at 10ug/mL, Spike Trimer coated at 2 ug/mL
T1 construct: extracellular domain

[2] = target: SARS-CoV-2 Gamma variant spike protein on pseudovirus (SARS-CoV-2, UniProt P0DTC2 14-1273); assay: cell-based or functional assay
[3] = target: SARS-CoV-2 Alpha variant spike protein on pseudovirus (SARS-CoV-2, UniProt P0DTC2 14-1273); assay: cell-based or functional assay
[4] = target: SARS-CoV-2 Omicron BA.4/BA.5 variant spike protein on pseudovirus (SARS-CoV-2); assay: cell-based or functional assay
[5] = target: SARS-CoV-2 Omicron BA.1 variant spike protein on pseudovirus (SARS-CoV-2); assay: cell-based or functional assay
[6] = target: SARS-CoV-2 Omicron BA.2 variant spike protein on pseudovirus (SARS-CoV-2); assay: cell-based or functional assay
[7] = target: SARS-CoV-2 Lambda variant spike protein on pseudovirus (SARS-CoV-2, UniProt P0DTC2 14-1273); assay: cell-based or functional assay

| Binder | ELISA (A450) at 10ug/mL [1] | also measured |
| --- | --- | --- |
| B1 | 0.61 |  |
| B2 | 2.7 |  |
| B3 | 0.53 | IC50 for neutralizing pseudovirus [2]: 1800 nM; IC50 for neutralizing pseudovirus [3]: 1820 nM; IC50 for neutralizing pseudovirus [4]: 3730 nM; IC50 for neutralizing pseudovirus [5]: 2250 nM; IC50 for neutralizing pseudovirus [6]: 2250 nM; IC50 for neutralizing pseudovirus [7]: 4570 nM |
| B4 | 0.3 |  |
| B5 | 1.2 |  |
| B6 | 0.66 |  |
| B7 | 1.43 |  |
| B8 | 1.34 |  |
| B9 | 0.14 |  |

From patent US20240417446A1 (US Dept. of Health and Human Services, published 2024)
